From the supplement of paper PMC10567573 come the findings set out here.

B1: KRT18 (parent)
chain: RVRSLETENRRLESKIREHLEKKG
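Further: lentivirally expressed fusions sorted by FACS into six bins by GFP to DsRed ratio, PSI derived from sequencing read proportions per bin multiplied by bin number.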

Variants of B1 are the subject of the series. Kind of series: protein stability index of a GFP-peptide fusion (GPS, HEK-293T) (PSI 1-6); higher = more stable. Conditions: c terminus: a fixed tail appended.
RVRSLETENKRLESKIREHLEKKG [R10K]: the protein stability index amounted to 4.36.
Regarding RVRSLETENCRLESKIREHLEKKG [R10C], the protein stability index worked out at 4.
In the case of RVRSLETENNRLESKIREHLEKKG [R10N] it was 4.69.
For the variant RVRSLETENYRLESKIREHLEKKG [R10Y], the protein stability index was 4.94.
Consider RVRSLETENIRLESKIREHLEKKG [R10I], for which the protein stability index worked out at 4.42.
Regarding RVRSLETENMRLESKIREHLEKKG [R10M], the protein stability index amounted to 5.26.
In the case of RVRSLETENDRLESKIREHLEKKG [R10D] it was 4.3.
In the case of RVRSLETENSRLESKIREHLEKKG [R10S] it was 4.88; in that of RVRSLETENFRLESKIREHLEKKG [R10F], 4.76.
As for RVRSLETENLRLESKIREHLEKKG [R10L], the protein stability index is 4.49.
Regarding RVRSLETENVRLESKIREHLEKKG [R10V], the protein stability index came to 5.08.
In the case of RVRSLETENGRLESKIREHLEKKG [R10G] it was 4.68; in that of RVRSLETENERLESKIREHLEKKG [R10E], 4.79; in that of RVRSLETENTRLESKIREHLEKKG [R10T], 4.71.
Under RVRSLETENARLESKIREHLEKKG [R10A] stands 4.16; under RVRSLETENPRLESKIREHLEKKG [R10P], 5.08; under RVRSLETENHRLESKIREHLEKKG [R10H], 4.74.
Under RVRSLETENRRLESKIHEHLEKKG [R17H] stands 5.06; under RVRSLETENRRLESKIQEHLEKKG [R17Q], 4.54.
As to RVRSLETENRRLESKIFEHLEKKG [R17F], the protein stability index was found to be 4.55.
In the case of RVRSLETENRRLESKIVEHLEKKG [R17V], the protein stability index turned out to be 4.96.
RVRSLETENRRLESKICEHLEKKG [R17C]: the protein stability index was 5.24.
As to RVRSLETENRRLESKITEHLEKKG [R17T], the protein stability index was found to be 5.
Consider RVRSLETENRRLESKIPEHLEKKG [R17P], for which the protein stability index turned out to be 4.84.
With RVRSLETENRRLESKIGEHLEKKG [R17G], the protein stability index came out at 5.38.
As for RVRSLETENRRLESKISEHLEKKG [R17S], the protein stability index worked out at 5.14.
Take RVRSLETENRRLESKIKEHLEKKG [R17K]: the protein stability index came to 4.39.
Regarding RVRSLETENRRLESKINEHLEKKG [R17N], the protein stability index worked out at 4.25.
In the case of RVRSLETENRRLESKIIEHLEKKG [R17I] it was 4.37; in that of RVRSLETENRRLESKIMEHLEKKG [R17M], 4.53.
With RVRSLETENRRLESKIYEHLEKKG [R17Y], the protein stability index was found to be 4.92.
On to RVRSLETENRRLESKIAEHLEKKG [R17A], for which the protein stability index was 3.79.
In the case of RVRSLETENRRLESKIDEHLEKKG [R17D] it was 5.49; in that of RVRSLETENRRLESKILEHLEKKG [R17L], 4.22; in that of RVRSLETENRRLESCIREHLEKKG [K15C], 4.06.
On to RVRSLETENRRLESNIREHLEKKG [K15N], for which the protein stability index is 5.24.
RVRSLETENRRLESAIREHLEKKG [K15A]: the protein stability index is 4.53.
With RVRSLETENRRLESSIREHLEKKG [K15S], the protein stability index is 5.16.
As to RVRSLETENRRLESDIREHLEKKG [K15D], the protein stability index came out at 3.69.
Under RVRSLETENRRLESQIREHLEKKG [K15Q] stands 4.56; under RVRSLETENRRLESTIREHLEKKG [K15T], 4.76; under RVRSLETENRRLESIIREHLEKKG [K15I], 4.41.
Consider RVRSLETENRRLESYIREHLEKKG [K15Y], for which the protein stability index was determined as 4.7.
With RVRSLETENRRLESFIREHLEKKG [K15F], the protein stability index was found to be 3.04.
RVRSLETENRRLESWIREHLEKKG [K15W]: the protein stability index worked out at 3.1.
Turning to RVRSLETENRRLESEIREHLEKKG [K15E], the protein stability index was 5.16.
Take RVRSLETENRRLESHIREHLEKKG [K15H]: the protein stability index came out at 3.6.
In the case of RVRSLETENRRLESRIREHLEKKG [K15R], the protein stability index is 4.67.
In the case of RVRSLETENRRLESMIREHLEKKG [K15M] it was 4.02.
For the variant RVRSLETENRRLESLIREHLEKKG [K15L], the protein stability index is 3.88.
Consider RVRSLETENRRLESPIREHLEKKG [K15P], for which the protein stability index is 5.23.
In the case of RVRSLETENRRLESKIRETLEKKG [H19T] it was 5.01; in that of RVRSLETENRRLESKIRENLEKKG [H19N], 4.78; in that of RVRSLETENRRLESKIREALEKKG [H19A], 4.46.
Take RVRSLETENRRLESKIRECLEKKG [H19C]: the protein stability index worked out at 3.82.
Regarding RVRSLETENRRLESKIREQLEKKG [H19Q], the protein stability index stood at 5.04.
For RVRSLETENRRLESKIREFLEKKG [H19F], the protein stability index worked out at 4.
Under RVRSLETENRRLESKIREGLEKKG [H19G] stands 5.48; under RVRSLETENRRLESKIREELEKKG [H19E], 5.26.
For the variant RVRSLETENRRLESKIREILEKKG [H19I], the protein stability index turned out to be 4.03.
For RVRSLETENRRLESKIREVLEKKG [H19V], the protein stability index turned out to be 4.49.
As for RVRSLETENRRLESKIREDLEKKG [H19D], the protein stability index was determined as 5.22.
On to RVRSLETENRRLESKIRESLEKKG [H19S], for which the protein stability index amounted to 4.79.
As to RVRSLETENRRLESKIREWLEKKG [H19W], the protein stability index is 2.25.
Consider RVRSLETENRRLESKIREPLEKKG [H19P], for which the protein stability index came out at 5.53.
On to RVRSLETENRRLESKIRTHLEKKG [E18T], for which the protein stability index was 4.25.
Consider RVRSLETENRRLESKIRVHLEKKG [E18V], for which the protein stability index is 3.88.
In the case of RVRSLETENRRLESKIRMHLEKKG [E18M] it was 3.94; in that of RVRSLETENRRLESKIRYHLEKKG [E18Y], 4.07.
Regarding RVRSLETENRRLESKIRGHLEKKG [E18G], the protein stability index amounted to 4.91.
In the case of RVRSLETENRRLESKIRDHLEKKG [E18D], the protein stability index was 4.53.
In the case of RVRSLETENRRLESKIRQHLEKKG [E18Q], the protein stability index amounted to 3.75.
In the case of RVRSLETENRRLESKIRSHLEKKG [E18S] it was 4.55; in that of RVRSLETENRRLESKIRKHLEKKG [E18K], 3.95.
Regarding RVRSLETENRRLESKIRRHLEKKG [E18R], the protein stability index was 3.99.
As for RVRSLETENRRLESKIRIHLEKKG [E18I], the protein stability index was determined as 4.29.
RVRSLETENRRLESKIRWHLEKKG [E18W]: the protein stability index is 4.51.
In the case of RVRSLETENRRLESKIRHHLEKKG [E18H] it was 3.99.
On to RVRSLETENRRLESKIRPHLEKKG [E18P], for which the protein stability index worked out at 4.88.
On to RVRSLETENRRLESKIRCHLEKKG [E18C], for which the protein stability index worked out at 3.81.
With RVRSLETENRRLESKIRFHLEKKG [E18F], the protein stability index was found to be 3.22.
In the case of RVRSLETENRRLESKIRAHLEKKG [E18A] it was 4.46; in that of RVRSLETENRRLESKIRNHLEKKG [E18N], 4.52.
Turning to RVRSLETENRRPESKIREHLEKKG [L12P], the protein stability index was 5.41.
Consider RVRSLETENRREESKIREHLEKKG [L12E], for which the protein stability index stood at 5.88.
On to RVRSLETENRRDESKIREHLEKKG [L12D], for which the protein stability index was 4.21.
For RVRSLETENRRGESKIREHLEKKG [L12G], the protein stability index stood at 5.35.
Consider RVRSLETENRRVESKIREHLEKKG [L12V], for which the protein stability index turned out to be 4.69.
In the case of RVRSLETENRRHESKIREHLEKKG [L12H], the protein stability index came to 5.05.
Consider RVRSLETENRRMESKIREHLEKKG [L12M], for which the protein stability index turned out to be 3.02.
In the case of RVRSLETENRRKESKIREHLEKKG [L12K] it was 5.49; in that of RVRSLETENRRCESKIREHLEKKG [L12C], 4.78; in that of RVRSLETENRRTESKIREHLEKKG [L12T], 5.22.
With RVRSLETENRRYESKIREHLEKKG [L12Y], the protein stability index amounted to 4.91.
